Results as given in the supplement of paper PMC9170038.

What was measured:
[1] = test system: MS2 coat protein; assay: apparent KD of MS2 coat protein, switch OFF state (with FMN for OFF switches, without FMN for ON switches); designed switch direction (-1 OFF switch, 1 ON switch): -1; higher = weaker reporter binding; conditions: FMN input: 0 or 200 uM; Eterna round: R93 (includes R88 designs)
Procedure, shortened: (§1)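 Illumina sequencing clusters served as templates for on-chip transcription of the designed RNA switches. SNAP-549-labelled MS2 coat protein was then titrated in twofold steps from 0.7 or 1.5 nM to 3 µM, allowing 0.8–1.5 h per step at first and 10–20 min per step later. The buffer held 100 mM Tris-HCl pH 7.5, 80 mM KCl and 4 mM MgCl2, without or with constant ligand. Apparent KD is the median per design of normalised cluster binding-curve fits.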

[2] = test system: MS2 coat protein; assay: apparent KD of MS2 coat protein, switch ON state; designed switch direction (-1 OFF switch, 1 ON switch): -1; higher = weaker reporter binding; conditions: FMN input: 0 or 200 uM; Eterna round: R93 (includes R88 designs)
Procedure, shortened: as §1

Row | Sequence | apparent KD of MS2 coat protein [1] [nM] | apparent KD of MS2 coat protein [2] [nM]
1 | AAAGGACGAGGAUAUACAUGAGGAUCACCCAUGUAAAAAACAUAAUAAAAGAACUUAUGUAGAAGGCGUCCAAA [Meechl Ex3 2] | 318 | 53.8
2 | AAAGGACGAGGAUAUACAUGAGGAUCACCCAUGUAAAAAACAUAGUAAAAGAACUUGUGUAGAAGGCGUCCAAA [Meechl Ex3 2 R2 v7] | 181 | 159
3 | AAAGGACGAGGAUAUACAUGAGGAUCACCCAUGUGUAAAACGUAAUAAAAGAACUUAUGUAGAAGGCGUCCAAA [Mat - Exclusion 3 - Eli mod - D96] | 214 | 64.7
4 | AAAGUGUGAGGAUAUGUGAAAGGACACGAAAGUGACAAAGAACAGAAGGUACAUGAGGAUCACCCAUGUAAAAA [milkweed 20] | 23.5 | 27.4
5 | AAAUAGUUAGGAUAUACAUGAGGAUCACCCAUGUGCACGUAUGGAGAAUAUGGUGGUGGUAGAAGGGACUAAAA [EX2 Malc#20] | 94.7 | 55.5
6 | AAAUAGUUAGGAUAUACAUGAGGAUCACCCAUGUGGACUUAUGGCGAAUAAUUUAGUGGUAGAAGGGACUAAAA [EX2 Malc#28] | 53.8 | 62.9
7 | AAAUGACAUGAGGAUCACCCAUGUCAGGAUAUGACUUGAAAAUAAAAUAAAAAACAUGUCAGAAGGGACAUGGG [Design 50: Sub-opt F] | 15.5 | 20.3
8 | AAAUGACUAGGAUAUACAUGAGGAUCACCCAUGUGUAUAAAUAAAUACACAAAAGAAAGUAGAAGGAGUCAAAG [Mat - Exclusion 3 - Mayanna mod - D123] | 60.5 | 20.6
9 | AAAUUGUCAGGAUAUCGUAGAACUCUAAAAUAGAGGAGCUACGAGAAGGGACAUGAGGAUCACCCAUGUAAAAC [May 88] | 68.4 | 56.2
10 | AACAAGUAAGGAUAUGCUGCUCGUCACAAAAGUGAUGAGUAGCAGAAGGUACAUGAGGAUCACCCAUGUAAAGA [JL eternac mod 16] | 21.1 | 28
11 | AACAAGUCAGGAUAUACAAAAAGUAAAUAAGUAAAACAAAAGUAGAAGGGACAUGAGGAUCACCCAUGUAAAUA [JR_Exc004_Sub018] | 26.7 | 46.8
12 | AACAAGUGAGGAUAUCUGGAUAGGAAAAAGAAAACCUAUCCAGAGAAGGCACAUGAGGAUCACCCAUGUAAAAA [JL cataway mod 6] | 34.6 | 32.7
13 | AACAGGUCAGGAUAUGUGCAACAGAAAAGAGCAGAAUAAGCACAGAAGGGACAUGAGGAUCACCCAUGUUAACA [May 27] | 32.2 | 24.6
14 | AACAGUACAGGAUAUACAUGAGGAUCACCCAUGUAGAGAAAAUAAAACAAAAAUAAAAGUAGAAGGGUACUGGA [Ruby 47] | 26.4 | 26.6
15 | AACAGUACAGGAUAUACAUGAGGAUCACCCAUGUAGAGAGAAUAAAACAAAAAUAAAUGUAGAAGGGUACUGGA [Moding Maslow revisited (73) 23] | 26.1 | 25.6
16 | AACAGUACAGGAUAUACAUGAGGAUCACCCAUGUCACACAAAUAAAACAAAAAUAAAAGUAGAAGGGUACUGGA [Ruby 40] | 25.9 | 24.9
17 | AACAGUACAGGAUAUACAUGAGGAUCACCCAUGUGAAAAUUAAGUGGAGAACCACAAAGUAGAAGGGUACUGAA [Mat - Exclusion 3 - Eli mod - D57] | 179 | 27.6
18 | AACAGUACAGGAUAUACAUGAGGAUCACCCAUGUGAGAAUUAAAAGGCGUACCUAAAAGUAGAAGGGUACUGGA [JL Maslow Revisted mod 18] | 73.2 | 28.3
19 | AACAGUACAGGAUAUACAUGAGGAUCACCCAUGUGAGAAUUAAGUGGCGAACCACAAAGUAGAAGGGUACUGAA [Mat - Exclusion 3 - JL mod - D7] | 181 | 45.3
